B1: dynK694A (assembly impaired, dominant activating dynamin mutant) (enzyme, UniProt Q05193 1-864, looked up)
chain: MGNRGMEDLIPLVNRLQDAFSAIGQNADLDLPQIAVVGGQSAGKSSVLENFVGRDFLPRGSGIVTRRPLVLQLVNATTEYAEFLHCKGKKFTDFEEVRLEIEAETDRVTGTNKGISPVPINLRVYSPHVLNLTLVDLPGMTKVPVGDQPPDIEFQIRDMLMQFVTKENCLILAVSPANSDLANSDALKVAKEVDPQGQRTIGVITKLDLMDEGTDARDVLENKLLPLRRGYIGVVNRSQKDIDGKKDITAALAAERKFFLSHPSYRHLADRMGTPYLQKVLNQQLTNHIRDTLPGLRNKLQSQLLSIEKEVEEYKNFRPDDPARKTKALLQMVQQFAVDFEKRIEGSGDQIDTYELSGGARINRIFHERFPFELVKMEFDEKELRREISYAIKNIHGIRTGLFTPDMAFETIVKKQVKKIREPCLKCVDMVISELISTVRQCTKKLQQYPRLREEMERIVTTHIREREGRTKEQVMLLIDIELAYMNTNHEDFIGFANAQQRSNQMNKKKTSGNQDEILVIRKGWLTINNIGIMKGGSKEYWFVLTAENLSWYKDDEEKEKKYMLSVDNLKLRDVEKGFMSSKHIFALFNTEQRNVYKDYRQLELACETQEEVDSWKASFLRAGVYPERVGDKEKASETEENGSDSFMHSMDPQLERQVETIRNLVDSYMAIVNKTVRDLMPKTIMHLMINNTAEFIFSELLANLYSCGDQNTLMEESAEQAQRRDEMLRMYHALKEALSIIGDINTTTVSTPMPPPVDDSWLQVQSVPAGRRSPTSSPTPQRRAPAVPPARPGSRGPAPGPPPAGSALGGAPPVPSRPGASPDPFGPPPQVPSRPNRAPPGVPSRSGQASPSRPESPRPPFDL

Assays:
[1] = molecular target: wild type dynamin (dynWT; recombinant dynamin 1) (UniProt Q05193); experiment: FLIM/FRET in fixed podocytes treated with LPS; donor GTPase-Alexa488, acceptor Hudy1-Alexa568; self-assembly
[2] = molecular target: wild type dynamin (dynWT; recombinant dynamin 1) (UniProt Q05193); experiment: FLIM/FRET in fixed podocytes; donor GTPase-a488, acceptor GTPase-a568 (same antibody on both); the text says no FRET signal was detected with this antibody pair
[3] = molecular target: wild type dynamin (dynWT; recombinant dynamin 1) (UniProt Q05193); experiment: FLIM/FRET in fixed podocytes treated with colchicine; donor GTPase-a488, acceptor Hudy1-a568; variant not given, taken as WT
[4] = molecular target: wild type dynamin (dynWT; recombinant dynamin 1) (UniProt Q05193); experiment: FLIM/FRET in fixed podocytes treated with cytochalasin D; donor GTPase-a488, acceptor Hudy1-a568; self-assembly
[5] = molecular target: wild type dynamin (dynWT; recombinant dynamin 1) (UniProt Q05193); experiment: FLIM/FRET in fixed podocytes treated with jasplakinolide; donor GTPase-a488, acceptor Hudy1-a568; variant not given, taken as WT
[6] = molecular target: wild type dynamin (dynWT; recombinant dynamin 1) (UniProt Q05193); experiment: FLIM/FRET in fixed podocytes; donor GTPase-alexa488, acceptor hudy1-alexa568; the value differs from the WT row of Table 1
[7] = molecular target: wild type dynamin (dynWT; recombinant dynamin 1) (UniProt Q05193); experiment: FLIM/FRET in fixed podocytes treated with LPS + E64; donor GTPase-Alexa488, acceptor Hudy1-Alexa568; self-assembly
[8] = molecular target: wild type dynamin (dynWT; recombinant dynamin 1) (UniProt Q05193); experiment: FLIM/FRET in fixed podocytes; donor GTPase-a488, acceptor Hudy1-a568; self-assembly
[9] = molecular target: wild type dynamin (dynWT; recombinant dynamin 1) (UniProt Q05193); experiment: FLIM/FRET in fixed podocytes expressing the variant; donor GTPase-Alexa488, acceptor Hudy1-Alexa568; shorter lifetime = dynamin higher order self-assembly
[10] = molecular target: dynK694A (assembly impaired, dominant activating dynamin mutant) (UniProt Q05193); experiment: FLIM/FRET in fixed podocytes treated with cytochalasin D; donor GTPase-a488, acceptor Hudy1-a568; self-assembly
[11] = molecular target: dynK694A (assembly impaired, dominant activating dynamin mutant) (UniProt Q05193); experiment: FLIM/FRET in fixed podocytes expressing the variant; donor GTPase-Alexa488, acceptor Hudy1-Alexa568; self-assembly
[12] = molecular target: dynK694A (assembly impaired, dominant activating dynamin mutant) (UniProt Q05193); experiment: FLIM/FRET in fixed podocytes; donor GTPase-a488, acceptor Hudy1-a568; self-assembly

Row | Molecule | Mean Lifetime (γ1) [1] [ps] | Mean Lifetime (γ1) [2] [ps] | Mean Lifetime (γ1) [3] [ps] | Mean Lifetime (γ1) [4] [ps] | Mean Lifetime (γ1) [5] [ps] | lifetime t1 [6] [ps] | Mean Lifetime (γ1) [7] [ps] | Mean Lifetime (γ1) [8] [ps] | Mean Lifetime (γ1) [9] [ps] | Mean Lifetime (γ1) [10] [ps] | Mean Lifetime (γ1) [11] [ps] | Mean Lifetime (γ1) [12] [ps]
1 | wild type dynamin (dynWT; recombinant dynamin 1) (from UniProt Q05193 1-864) (enzyme) | 2560 | 2420 | 2300 | 2030 | 2250 | 2270 | 2280 | 2250 | 2210 |  |  | 
2 | B1 |  |  |  |  |  |  |  |  |  | 2050 | 2410 | 2410

— patent US20100272709A1 (GENERAL HOSPITAL, published 2010)
